According to publication PMC10928157, “The thymocyte-specific RNA-binding protein Arpp21 provides TCR repertoire diversity by binding to the 3’-UTR and promoting Rag1 mRNA expression”:

Tests used:
[1] = target: Arpp21 61-260 (UniProt Q9DCB4 61-260); assay: ITC; 25 C, TCEP; panel label, Methods and text say 61-260, legend says 130-260; 20 mM sodium phosphate pH 6.5, 300 mM NaCl, 2 mM DTT (TCEP instead of DTT for ITC); NMR 298 K, 10% D2O, 50 uM protein; ITC 25 C, 20 uM protein, 200 uM RNA in syringe; conditions: protein: recombinant; tags: His-GB1 tag, TEV-cleaved
Chain of Arpp21 61-260 (Q9DCB4 61-260): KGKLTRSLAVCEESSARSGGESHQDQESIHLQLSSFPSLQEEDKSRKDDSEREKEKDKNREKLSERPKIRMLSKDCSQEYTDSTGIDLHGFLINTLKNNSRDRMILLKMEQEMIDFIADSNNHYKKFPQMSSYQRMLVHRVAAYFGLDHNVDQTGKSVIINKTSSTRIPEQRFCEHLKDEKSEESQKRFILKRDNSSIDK

[2] = target: Arpp21 1-330 (UniProt Q9DCB4 1-330); assay: ITC; 25 C, TCEP; 20 mM sodium phosphate pH 6.5, 300 mM NaCl, 2 mM DTT (TCEP instead of DTT for ITC); NMR 298 K, 10% D2O, 50 uM protein; ITC 25 C, 20 uM protein, 200 uM RNA in syringe; conditions: protein: recombinant; tags: His-GB1 tag, TEV-cleaved
Chain of Arpp21 1-330 (Q9DCB4 1-330): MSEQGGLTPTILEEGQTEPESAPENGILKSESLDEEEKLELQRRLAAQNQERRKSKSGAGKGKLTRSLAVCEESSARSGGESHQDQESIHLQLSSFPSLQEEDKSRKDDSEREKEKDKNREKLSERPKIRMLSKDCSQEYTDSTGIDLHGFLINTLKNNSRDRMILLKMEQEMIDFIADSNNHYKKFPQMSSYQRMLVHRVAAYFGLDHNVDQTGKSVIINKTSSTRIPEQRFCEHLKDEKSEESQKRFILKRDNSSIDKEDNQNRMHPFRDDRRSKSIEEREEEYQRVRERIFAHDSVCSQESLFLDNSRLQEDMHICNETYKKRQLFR

UUUUUUUUU (ssRNA) [U9 RNA] showed a Kd [1] of 4.8 µM and a Kd [2] of 4.7 µM.
